Data reported in patent publication US20230391845A1, “GLP-1, GIP AND GLUCAGON RECEPTOR TRIPLE AGONISTS” (priority 2020, published 2023).
Read-outs that look alike come from different tables or passages of the source. *1 amine or outer side, *2 acyl side, *3 side chain or, on linkers, in order; H or OH if unused. Where a SMILES comes first, the peptide text is derived from it. Where no end group is shown, it is not given here. Side-chain parts run from the residue outwards. [ ]: non-standard residue; d: D form. The star is where a group is joined. C20 diacid = O=C(O)CCCCCCCCCCCCCCCCCCC(=O)*; γGlu = O=C(O)[C@H](CCC(=O)[*:2])N[*:1]; εLys = N[C@@H](CCCCN[*:1])C(=O)[*:2]; Palmitoyl = CCCCCCCCCCCCCCCC(=O)*; Aib = CC(C)(N)C(=O)O

T1: human GIP receptor (Homo sapiens, UniProt P48546)
T1 construct: expressed in transfected cells; host or cells: BHK cells (parent line BHKTS13) containing CRE luciferase
T1 sequence (P48546 22-466): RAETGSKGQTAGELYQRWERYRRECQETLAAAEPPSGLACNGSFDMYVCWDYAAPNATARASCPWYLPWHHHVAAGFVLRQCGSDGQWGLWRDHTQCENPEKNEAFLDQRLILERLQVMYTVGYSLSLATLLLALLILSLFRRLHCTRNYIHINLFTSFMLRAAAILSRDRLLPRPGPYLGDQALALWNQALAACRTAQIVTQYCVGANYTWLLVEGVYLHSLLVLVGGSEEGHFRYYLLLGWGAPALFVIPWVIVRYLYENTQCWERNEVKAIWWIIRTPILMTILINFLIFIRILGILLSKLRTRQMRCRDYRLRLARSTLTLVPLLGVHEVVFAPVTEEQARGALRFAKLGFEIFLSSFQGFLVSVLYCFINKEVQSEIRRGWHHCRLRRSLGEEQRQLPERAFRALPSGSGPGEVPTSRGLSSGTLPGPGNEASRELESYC

T2: human glucose-dependent insulinotropic polypeptide receptor (human, UniProt P48546 22-466)
T2 sequence (looked up): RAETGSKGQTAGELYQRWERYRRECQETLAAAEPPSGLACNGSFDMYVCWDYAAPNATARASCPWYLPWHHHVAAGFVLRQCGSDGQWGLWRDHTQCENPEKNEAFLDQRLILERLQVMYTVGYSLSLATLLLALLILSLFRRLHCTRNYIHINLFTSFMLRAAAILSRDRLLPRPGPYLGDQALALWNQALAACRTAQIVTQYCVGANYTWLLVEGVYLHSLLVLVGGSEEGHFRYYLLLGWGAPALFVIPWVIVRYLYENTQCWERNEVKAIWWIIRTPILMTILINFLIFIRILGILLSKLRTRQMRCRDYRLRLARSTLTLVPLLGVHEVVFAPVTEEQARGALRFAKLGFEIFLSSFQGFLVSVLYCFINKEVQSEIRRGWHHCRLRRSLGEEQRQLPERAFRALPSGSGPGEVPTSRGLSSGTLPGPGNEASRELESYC


Experiments:
human GIP receptor = target: T1, human GIP receptor; test: In vitro functional potency (CRE luciferase; whole cells), human GIPR; assay type: cell-based; conditions: BHK CRE luc2P hGIPR whole cells; Table 2; read-out: hGIPR CRE Luc EC50
Procedure: (§1) The purpose of this example is to test the functional activity, or potency, of the compounds in vitro at the human and mouse GLP-1, GIP, and Gcg receptors. The in vitro functional potency is the measure of target receptor activation in a whole cell assay.
(§2) In vitro functional potency was determined by measuring the response of the target receptor in a reporter gene assay in individual cell lines. The assay was performed in stably transfected BHK cell lines that expresses one of the following G-protein coupled receptors: human GLP-1 receptor, human GIP receptor, human Gcg receptor, mouse GLP-1 receptor, mouse GIP receptor, or mouse Gcg receptor; and where each cell line contains the DNA for the cAMP response element (CRE) coupled to a promoter and the gene for firefly luciferase (CRE luciferase). When the respective receptor is activated, it results in the production of cAMP, which in turn results in expression of the luciferase protein. When assay incubation is completed, luciferase substrate (luciferin) is added resulting in the enzymatic conversion of luciferin to oxyluciferin and producing bioluminescence. The luminescence is measured as the readout for the assay.
(§3) The cells lines used in these assays were BHK cells with BHKTS13 as a parent cell line. The cell lines were derived from a clone containing the CRE luciferase element and were established by further transfection with the respective receptor to obtain the relevant cell line.
(§4) The cells were cultured at 37° C. with 5% CO2 in Cell Culture Medium. They were aliquoted and stored in liquid nitrogen. The cells were kept in continuous culture and were seeded out the day before each assay.
(§5) GLP-1R and GcgR Cell Culture Medium consisted of DMEM medium with 10% FBS, 500 µg/mL G418, and 300 µg/mL hygromycin. GIPR Cell Culture Medium consisted of DMEM medium with 10% FBS, 400 µg/mL G418, and 300 µg/mL hygromycin. Assay Buffer consisted of DMEM w/o phenol red, 10 mM Hepes, 1× Glutamax, 1% ovalbumin, and 0.1% Pluronic F-68.
(§6) • 1) Cells were plated at 5000 cells/well and incubated overnight in the assay plate. • 2) Cells were washed once in DPBS. • 3) Stocks of the test compounds and reference compounds in concentrations ranging from 100-300 pM were diluted 1:150 in Assay Buffer.
(§7) The data from the microtiter plate reader was first regressed in an Excel in order to calculate the x-axis, log scale concentrations based on the individual test compound's stock concentration and the dilutions of the assay. […] The software performs a non-linear regression (log(agonist) vs response). A minimum of two replicates was measured for each sample. The reported values are averages of the replicates.

[1] = Pharmacokinetic study in minipigs, i.v. administration; parameters: species or system Göttingen minipigs; conditions: female, Göttingen, minipig, in vivo, iv
Method in brief: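 Female Göttingen minipigs (7-14 months, 16-35 kg), fasted ~18 h pre-dose to 4 h post-dose, received i.v. injections of usually 1.5-2 nmol/kg via central venous catheter. Plasma sampled up to 14 days, assayed by ELISA or LCMS; terminal half-life (harmonic mean) from non-compartmental analysis.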

human GLP-1 receptor = target: T3, human GLP-1 receptor (Homo sapiens, UniProt P43220); test: In vitro functional potency (CRE luciferase; whole cells), human GLP-1R; assay type: cell-based; conditions: BHK CRE luc2P hGLP-1R whole cells; Table 2; read-out: hGLP-1R CRE Luc EC50
T3 construct: expressed in transfected cells; host or cells: BHK cells (parent line BHKTS13) containing CRE luciferase
Procedure: as §1, §2, §3, §4, §5, §6, §7

[2] = target: T4, human glucagon-like peptide 1 receptor (human, UniProt P43220 24-463); test: cell-based or functional assay
[3] = target: T2, human glucose-dependent insulinotropic …; test: cell-based or functional assay
human glucagon receptor [4] = target: T5, human glucagon receptor (human, UniProt P47871 26-477); test: cell-based or functional assay
[5] = target: T4, human glucagon-like peptide 1 receptor; test: cell-based or functional assay; remark: listed apart in the source
[6] = target: T2, human glucose-dependent insulinotropic …; test: cell-based or functional assay; remark: listed apart in the source
human glucagon receptor [7] = target: T5, human glucagon receptor; test: cell-based or functional assay; remark: listed apart in the source

T5 sequence (P47871 26-477): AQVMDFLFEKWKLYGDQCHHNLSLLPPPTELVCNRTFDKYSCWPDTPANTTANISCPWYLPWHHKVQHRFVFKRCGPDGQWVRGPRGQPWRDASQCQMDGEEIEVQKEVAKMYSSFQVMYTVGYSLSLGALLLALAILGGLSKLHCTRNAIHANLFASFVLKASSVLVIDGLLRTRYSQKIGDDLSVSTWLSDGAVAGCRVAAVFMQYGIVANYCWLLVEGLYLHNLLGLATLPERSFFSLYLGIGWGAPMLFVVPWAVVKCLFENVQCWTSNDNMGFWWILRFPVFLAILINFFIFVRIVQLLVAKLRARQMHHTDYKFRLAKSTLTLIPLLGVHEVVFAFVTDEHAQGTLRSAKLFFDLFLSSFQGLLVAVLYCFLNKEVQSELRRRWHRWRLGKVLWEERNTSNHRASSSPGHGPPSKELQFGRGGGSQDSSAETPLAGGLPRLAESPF
T3 sequence (P43220 24-463): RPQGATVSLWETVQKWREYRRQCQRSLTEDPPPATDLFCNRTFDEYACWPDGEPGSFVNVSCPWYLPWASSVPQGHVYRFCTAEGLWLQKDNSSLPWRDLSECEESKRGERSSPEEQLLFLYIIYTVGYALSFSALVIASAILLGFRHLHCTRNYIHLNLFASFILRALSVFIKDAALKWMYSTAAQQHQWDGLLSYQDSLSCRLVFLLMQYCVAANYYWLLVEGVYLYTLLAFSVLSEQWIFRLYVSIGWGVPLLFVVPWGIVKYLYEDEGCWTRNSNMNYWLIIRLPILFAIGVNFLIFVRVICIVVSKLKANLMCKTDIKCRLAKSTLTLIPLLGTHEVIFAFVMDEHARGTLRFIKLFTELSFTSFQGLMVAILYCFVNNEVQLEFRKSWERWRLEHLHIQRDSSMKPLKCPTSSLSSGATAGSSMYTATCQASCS

Molecule | EC50 (human GIP receptor) [pM] | half-life [1] [h] | EC50 (human GLP-1 receptor) [pM] | hGLP-1R CRE Luc EC50 (pM) [2] [pM] | hGIPR CRE Luc EC50 (pM) [3] [pM] | hGcgR CRE Luc EC50 (pM) (human glucagon receptor [4]) | hGLP-1R CRE Luc EC50 (pM) [5] [pM] | hGIPR CRE Luc EC50 (pM) [6] [pM] | hGcgR CRE Luc EC50 (pM) (human glucagon receptor [7])
CC[C@H](C)[C@H](NC(=O)[C@H](CO)NC(=O)[C@H](Cc1ccc(O)cc1)NC(=O)[C@H](CC(=O)O)NC(=O)[C@H](CO)NC(=O)[C@@H](NC(=O)[C@H](Cc1ccccc1)NC(=O)[C@@H](NC(=O)CNC(=O)[C@H](Cc1c[nH]cn1)NC(=O)C(C)(C)NC(=O)[C@@H](N)Cc1c[nH]cn1)[C@@H](C)O)[C@@H](C)O)C(=O)N[C@@H](Cc1ccc(O)cc1)C(=O)N[C@@H](CC(C)C)C(=O)N[C@@H](CCC(=O)O)C(=O)N[C@@H](CCCCNC(=O)[C@@H](N)CCCCNC(=O)[C@@H](N)CCCCNC(=O)CC[C@H](NC(=O)CCCCCCCCCCCCCCCCCCC(=O)O)C(=O)O)C(=O)N[C@@H](CCC(N)=O)C(=O)N[C@@H](Cc1ccc(O)cc1)C(=O)N[C@@H](C)C(=O)NC(C)(C)C(=O)N[C@@H](CCC(=O)O)C(=O)N[C@@H](Cc1ccccc1)C(=O)N[C@H](C(=O)N[C@@H](CCC(N)=O)C(=O)N[C@@H](Cc1c[nH]c2ccccc12)C(=O)N[C@@H](CC(C)C)C(=O)N[C@@H](CC(C)C)C(=O)N[C@@H](CCC(=O)O)C(=O)NCC(=O)NCC(=O)N1CCC[C@H]1C(=O)N[C@@H](CO)C(=O)N[C@@H](CO)C(=O)NCC(=O)N[C@@H](C)C(=O)N1CCC[C@H]1C(=O)N1CCC[C@H]1C(=O)N1CCC[C@H]1C(=O)N[C@@H](CO)C(N)=O)C(C)C [Compound No. 24] (H-H[Aib]HGTFTSDYSIYLEK([εLys-εLys-γGlu-C20 diacid])QYA[Aib]EFVQWLLEGGPSSGAPPPS-NH2) | 7.7 | 82 | – | – | – | – | – | – | –
CC[C@H](C)[C@H](NC(=O)[C@H](CO)NC(=O)[C@H](Cc1ccc(O)cc1)NC(=O)[C@H](CC(=O)O)NC(=O)[C@H](CO)NC(=O)[C@@H](NC(=O)[C@H](Cc1ccccc1)NC(=O)[C@@H](NC(=O)CNC(=O)[C@H](Cc1c[nH]cn1)NC(=O)C(C)(C)NC(=O)[C@@H](N)Cc1c[nH]cn1)[C@@H](C)O)[C@@H](C)O)C(=O)N[C@@H](CC(C)C)C(=O)N[C@@H](CC(C)C)C(=O)N[C@@H](CCC(=O)O)C(=O)N[C@@H](CCCCNC(=O)[C@@H](N)CCCCNC(=O)[C@@H](N)CCCCNC(=O)CC[C@H](NC(=O)CCCCCCCCCCCCCCCCCCC(=O)O)C(=O)O)C(=O)N[C@@H](CCCCN)C(=O)N[C@@H](Cc1ccc(O)cc1)C(=O)N[C@@H](C)C(=O)NC(C)(C)C(=O)N[C@@H](CCC(=O)O)C(=O)N[C@@H](Cc1ccccc1)C(=O)N[C@H](C(=O)N[C@@H](CCC(N)=O)C(=O)N[C@@H](Cc1c[nH]c2ccccc12)C(=O)N[C@@H](CC(C)C)C(=O)N[C@@H](CC(C)C)C(=O)N[C@@H](CCC(=O)O)C(=O)NCC(=O)NCC(=O)N1CCC[C@H]1C(=O)N[C@@H](CO)C(=O)N[C@@H](CO)C(=O)NCC(=O)N[C@@H](C)C(=O)N1CCC[C@H]1C(=O)N1CCC[C@H]1C(=O)N1CCC[C@H]1C(=O)N[C@@H](CO)C(N)=O)C(C)C [Compound No. 41] (H-H[Aib]HGTFTSDYSILLEK([εLys-εLys-γGlu-C20 diacid])KYA[Aib]EFVQWLLEGGPSSGAPPPS-NH2) | 9.3 | 69 | 4.3 | – | – | – | – | – | –
Y[Aib]QGTFTSDYSIYLDKKAA[Aib]EFVNWLLAGGPSSGAPPPS-NH2 (not fully specified (residue 17); printed as Y-Aib-QGTFTSDYSIYLDK-K[2-[2-[2-[[2-[2-[2-[[(4S)-4-carboxy-4-(17-carboxyheptadecanoylamino)butanoyl]amino]ethoxy]ethoxy]acetyl]amino]ethoxy]ethoxy]acetyl]-AA-Aib-EFVNWLLAGGPSSGAPPPS-NH2) [Compound No. 2] | – | – | – | 7.1 | 49.8 | 47.6 | 7.1 | 49.8 | 47.6
Y[Aib]QGTFTSDYSIYLDKQAA[Aib]EFVNWLLAGGPSSGAPPPSK-NH2 (not fully specified (residue 40)) [Compound No. 59] | – | – | – | 11.7 | 44.5 | 703 | – | – | –
Y[Aib]QGTFTSDYSIYLDKQAA[Aib]EFVNWLLAKGPSSGAPPPS-NH2 (not fully specified (residue 29)) [Compound No. 65] | – | – | – | 132 | 56 | 1350 | – | – | –
Y[Aib]QGTFTSDYSIYLDKQAA[Aib]EFVKWLLAGGPSSGAPPPS-NH2 (not fully specified (residue 24)) [Compound No. 64] | – | – | – | 45.4 | 174 | 464 | – | – | –
Y[Aib]QGTFTSDYSIYLDKQAA[Aib]EFVNWLLAGGPSSGAPPPS-NH2 (not fully specified (residue 16); printed as Y-Aib-QGTFTSDYSIYLD-K[2-[2-[2-[[2-[2-[2-[[(4S)-4-carboxy-4-(17-carboxyheptadecanoylamino)butanoyl]amino]ethoxy]ethoxy]acetyl]amino]ethoxy]ethoxy]acetyl]-QAA-Aib-EFVNWLLAGGPSSGAPPPS-NH2) [Compound No. 1] | – | – | – | 8.6 | 23.7 | 157 | 8.6 | 23.7 | 157
Y[Aib]QGTFTSDYSIYKDKQAA[Aib]EFVNWLLAGGPSSGAPPPS-NH2 (not fully specified (residue 14)) [Compound No. 63] | – | – | – | 25 | 175 | 1110 | – | – | –
Y[Aib]QGTFTSDYSIKLDKQAA[Aib]EFVNWLLAGGPSSGAPPPS-NH2 (not fully specified (residue 13)) [Compound No. 62] | – | – | – | 36 | 65 | 891 | – | – | –
Y[Aib]QGTFTSDYSIYLDKQAAKEFVNWLLAGGPSSGAPPPS-NH2 (not fully specified (residue 20); printed as Y-Aib-QGTFTSDYSIYLDKQAA-K[2-[2-[2-[[2-[2-[2-[[(4S)-4-carboxy-4-(17-carboxyheptadecanoylamino)butanoyl]amino]ethoxy]ethoxy]acetyl]amino]ethoxy]ethoxy]acetyl]-EFVNWLLAGGPSSGAPPPS-NH2) [Compound No. 60] | – | – | – | 14.9 | 416 | 182 | – | – | –
Y[Aib]QGTFTSDYSIYLDKQAA[Aib]EFVNWLLAGGPSSGKPPPS-NH2 (not fully specified (residue 35)) [Compound No. 66] | – | – | – | 12 | 26 | 1020 | – | – | –
Y[Aib]QGTFTSDYSIYLDKQAA[Aib]EFVNWLLAGGPSSGAPPPSK(Palmitoyl)-NH2 (N-terminus assumed; SMILES CCCCCCCCCCCCCCCC(=O)NCCCC[C@H](NC(=O)[C@H](CO)NC(=O)[C@@H]1CCCN1C(=O)[C@@H]1CCCN1C(=O)[C@@H]1CCCN1C(=O)[C@H](C)NC(=O)CNC(=O)[C@H](CO)NC(=O)[C@H](CO)NC(=O)[C@@H]1CCCN1C(=O)CNC(=O)CNC(=O)[C@H](C)NC(=O)[C@H](CC(C)C)NC(=O)[C@H](CC(C)C)NC(=O)[C@H](Cc1c[nH]c2ccccc12)NC(=O)[C@H](CC(N)=O)NC(=O)[C@@H](NC(=O)[C@H](Cc1ccccc1)NC(=O)[C@H](CCC(=O)O)NC(=O)C(C)(C)NC(=O)[C@H](C)NC(=O)[C@H](C)NC(=O)[C@H](CCC(N)=O)NC(=O)[C@H](CCCCN)NC(=O)[C@H](CC(=O)O)NC(=O)[C@H](CC(C)C)NC(=O)[C@H](Cc1ccc(O)cc1)NC(=O)[C@@H](NC(=O)[C@H](CO)NC(=O)[C@H](Cc1ccc(O)cc1)NC(=O)[C@H](CC(=O)O)NC(=O)[C@H](CO)NC(=O)[C@@H](NC(=O)[C@H](Cc1ccccc1)NC(=O)[C@@H](NC(=O)CNC(=O)[C@H](CCC(N)=O)NC(=O)C(C)(C)NC(=O)[C@@H](N)Cc1ccc(O)cc1)[C@@H](C)O)[C@@H](C)O)[C@@H](C)CC)C(C)C)C(N)=O) [Compound No. 58] | – | – | – | 4.1 | 7.2 | 21.2 | – | – | –
